Data set [1] concerns the molecule itself. The data set can be described thus: transmission electron microscopy.
The data set “SEC” concerns the molecule itself. The data set can be described thus: SEC. On the technique in general: Size exclusion chromatography separates by hydrodynamic size, large species first.

Positions count from the first letter of the chain named. Names and notes keep the numbering of the source.

B1: PhMV Cys1+2 (A31C S137C) coat protein, assembled as virus-like particles (natural protein, Physalis mottle virus)
chain: MDSSEVVKVKQASIPAPGSILSQPNTEQSPCIVLPFQFEATTFGTAETAAQVSLQTADPITKLTAPYRHAQIVECKAILTPTDLAVSNPLTVYLAWVPANSPATPTQILRVYGGQSFVLGGAISAAKTIEVPLNLDCVNRMLKDSVTYTDTPKLLAYSRAPTNPSKIPTASIQISGRIRLSKPMLIAN
For the protein B1, in data set [1], the binding result is reported as “binds”.

B2: PhMV Cys2 (S137C) coat protein, assembled as virus-like particles (natural protein, Physalis mottle virus)
chain: B1 chain with C31A
In the case of B2, the binding result in “SEC” is listed as “binds”.

B3: PhMV Cys1 (A31C) coat protein, assembled as virus-like particles (natural protein, Physalis mottle virus)
chain: B1 chain with C137S
As for B3, in “SEC”, the binding result is given as “binds”.

Source of the values: publication PMC10538386 (Bioconjugate chemistry, 2023).
